Patent US20040242853A1
Square brackets hold non-standard residues; d marks the D form. Ends that are not written are not given here. Ahx = NCCCCCC(=O)O

Tests used:
[1] = tested on: GLP-1 (7-36) amide
[2] = tested on: GLP-1 6-aminohexanoic acid8
[3] = target: human GLP-1 receptor (CHO cells stably transfected with the human GLP-1 receptor) (human) (UniProt P43220); experiment: displacement of 125I-GLP-1 from intact CHO/GLP-1R cells (Example 9)
[4] = target: T1, human GLP-1 receptor (CHO cells stably transfected with the human GLP-1 receptor) (human), P43220; experiment: cell-based or functional assay
T1 chain: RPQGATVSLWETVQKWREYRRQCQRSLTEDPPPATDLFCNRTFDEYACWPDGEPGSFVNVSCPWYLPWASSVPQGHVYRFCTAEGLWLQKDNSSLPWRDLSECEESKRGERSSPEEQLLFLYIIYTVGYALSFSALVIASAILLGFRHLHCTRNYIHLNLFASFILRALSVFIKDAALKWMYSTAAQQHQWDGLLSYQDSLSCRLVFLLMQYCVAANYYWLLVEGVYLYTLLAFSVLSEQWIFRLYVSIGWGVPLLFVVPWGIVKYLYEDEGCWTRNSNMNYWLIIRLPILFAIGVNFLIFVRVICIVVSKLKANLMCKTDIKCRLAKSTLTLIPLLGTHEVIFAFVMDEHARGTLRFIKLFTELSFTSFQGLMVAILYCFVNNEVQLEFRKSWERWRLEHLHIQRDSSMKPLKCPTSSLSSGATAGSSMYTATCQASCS

[5] = target: T1, human GLP-1 receptor (CHO cells stably …); experiment: displacement of 125I-GLP-1 from intact CHO/GLP-1R cells (Example 9)

Sequence of Exendin (1-35) (peptide; other documents disagree on this pair) (C6EVG1 48-82): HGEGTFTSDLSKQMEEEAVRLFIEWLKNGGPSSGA

In the case of “recombinant DPPIV (dipeptidyl peptidase IV)”, the “N-terminal truncated product measured by MALDI-TOF” value [1] is reported as “caused a considerable increase in the amount of N-terminal truncated product (Mr=3089 gmol-1) as measured by MALDI” and the “N-terminal truncated product measured by MALDI-TOF” value [2] is reported as “In contrast GLP-1 Aha^8 (2 µM) appeared resistant to either treatment”.

In the case of “Exendin (1-35) (peptide; other documents disagree on this pair)”, the IC50 [3] is reported as 7 nM.

Molecule H[Ahx]AEGTFTSDVSSYLEGQAAKEFIAWLVKGR (ends and bridges not checked) [GLP-1 6-aminohexanoic acid8] has an intracellular cAMP production in CHO/GLP-1R cells (fold above basal) [4] of 4.

HGEGTFTSDVSSYLEGQAAKEFIAWLVKGRPSSGAPPPS (modifications not checked) [GLP-1 Gly8(7-36) Exendin(31-39)] gave an IC50 [5] of 74 nM.
